Measured values taken from patent US5747447A, “Stable polypeptide composition” (COR Therapeutics, priority 1995, dated 1998).

B1: cotiarin (protein)
peptide: EAGEECDCGAPENPCCDAATCKLRPGAQCAEGLCCDQCRFKGAGKICRRARGDNPDDRCTGQSADCPRNRFH
B2: barbourin (protein)
peptide: EAGEECDCGSPENPCCDAATCKLRPGAQCADGLCCDQCRFMKKGTVCRVAKGDWNDDTCTGQSADCPRNGLYG

Columns and labels:
[1] = biological target: vitronectin receptor (Homo sapiens, UniProt P05106+P06756); experiment: plate assay, inhibition of vitronectin binding to vitronectin receptor
Text: The PAI assay systems further include characterization of the PAI specificity by binding inhibition assays identical to that above but substituting other adhesive proteins for Fg and other receptors for GP IIb-IIIa. In particular, inhibition of the binding of vitronectin to the vitronectin receptor; fibronectin to the fibronectin receptor; fibronectin to GP IIb-IIIa and fibrinogen and/or vWF to GP IIb-IIIa can be assessed. The adhesive protein and receptors for these assays are available in the art.

[2] = test system: M21 melanoma cells; experiment: M21 melanoma cell adhesion to vitronectin-coated plates; format: cell-based
Protocol: M21 melanoma cells were labelled with ^35 S-methionine, and then added to vitronectin-coated plates in the presence of the indicated concentrations of purified snake venom peptides. Cell attachment was measured by solubilizing the cells remaining after an incubation and wash, as previously describe.

[3] = biological target: ADP-induced human platelet aggregation (Homo sapiens, UniProt P05106+P08514); experiment: standard aggregation inhibition assay (ADP-induced human platelet aggregation); format: cell-based
Text: 2. Standard assays directly applied to platelet aggregation, such as those described by Gann, Z.-R., et al., J Biol Chem (1988) 263:19827-19832; Huang, T. F., et al., J Biol Chem (1987) 262:16157-16163; Biochemistry (1989) 28:661-666, cited above and incorporated herein by reference;

Chain of vitronectin receptor (P06756 31-889 limits assumed): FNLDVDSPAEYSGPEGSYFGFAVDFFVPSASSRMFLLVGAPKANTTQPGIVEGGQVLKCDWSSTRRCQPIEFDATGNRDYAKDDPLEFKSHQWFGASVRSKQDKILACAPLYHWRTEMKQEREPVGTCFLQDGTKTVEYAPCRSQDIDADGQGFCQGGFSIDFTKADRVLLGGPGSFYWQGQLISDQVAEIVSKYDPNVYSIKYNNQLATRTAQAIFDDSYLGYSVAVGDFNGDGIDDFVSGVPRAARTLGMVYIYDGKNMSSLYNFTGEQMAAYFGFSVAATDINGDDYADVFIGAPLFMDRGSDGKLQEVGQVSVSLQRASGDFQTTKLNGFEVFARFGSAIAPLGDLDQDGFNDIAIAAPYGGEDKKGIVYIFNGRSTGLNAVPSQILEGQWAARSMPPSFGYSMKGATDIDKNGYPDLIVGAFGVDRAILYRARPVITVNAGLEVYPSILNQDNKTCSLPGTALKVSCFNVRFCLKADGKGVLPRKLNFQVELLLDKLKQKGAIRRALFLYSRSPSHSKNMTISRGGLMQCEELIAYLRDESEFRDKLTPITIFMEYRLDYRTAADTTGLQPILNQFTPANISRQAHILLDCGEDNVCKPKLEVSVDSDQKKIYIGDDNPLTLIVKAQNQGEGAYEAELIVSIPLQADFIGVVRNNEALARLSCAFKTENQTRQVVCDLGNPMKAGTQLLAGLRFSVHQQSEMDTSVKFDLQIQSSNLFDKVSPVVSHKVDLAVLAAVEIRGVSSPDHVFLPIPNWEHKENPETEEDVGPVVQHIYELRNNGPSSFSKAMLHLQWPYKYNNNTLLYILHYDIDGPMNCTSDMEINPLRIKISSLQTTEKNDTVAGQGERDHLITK
Chain of vitronectin receptor (P06756 891-1048 limits assumed): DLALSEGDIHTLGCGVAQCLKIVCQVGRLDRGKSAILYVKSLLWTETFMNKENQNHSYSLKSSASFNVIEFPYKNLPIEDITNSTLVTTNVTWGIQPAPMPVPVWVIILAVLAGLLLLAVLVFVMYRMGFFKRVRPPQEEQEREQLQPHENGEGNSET
Chain of vitronectin receptor (P05106 27-788): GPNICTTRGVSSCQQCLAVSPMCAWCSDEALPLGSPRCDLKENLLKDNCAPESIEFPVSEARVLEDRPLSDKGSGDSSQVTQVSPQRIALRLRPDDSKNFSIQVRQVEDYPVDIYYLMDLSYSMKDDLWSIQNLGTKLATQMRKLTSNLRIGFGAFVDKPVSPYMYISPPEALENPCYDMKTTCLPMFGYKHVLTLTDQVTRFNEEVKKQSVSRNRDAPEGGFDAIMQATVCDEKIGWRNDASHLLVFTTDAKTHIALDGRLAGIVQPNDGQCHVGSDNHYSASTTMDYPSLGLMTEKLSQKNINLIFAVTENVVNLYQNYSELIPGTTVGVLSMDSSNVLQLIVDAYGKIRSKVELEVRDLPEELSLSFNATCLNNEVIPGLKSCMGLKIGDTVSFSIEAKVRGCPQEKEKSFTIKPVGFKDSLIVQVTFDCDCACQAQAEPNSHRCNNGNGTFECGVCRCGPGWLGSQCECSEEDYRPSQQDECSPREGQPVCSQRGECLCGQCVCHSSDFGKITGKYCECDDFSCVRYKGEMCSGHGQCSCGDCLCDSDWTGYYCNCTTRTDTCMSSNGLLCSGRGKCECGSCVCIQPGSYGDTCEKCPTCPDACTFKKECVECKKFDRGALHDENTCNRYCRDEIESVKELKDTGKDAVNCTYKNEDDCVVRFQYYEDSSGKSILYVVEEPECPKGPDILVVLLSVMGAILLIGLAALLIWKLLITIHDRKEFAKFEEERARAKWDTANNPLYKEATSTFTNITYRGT

| Molecule | inhibition of vitronectin binding to the vitronectin receptor (in words) [1] | M21 cell attachment to vitronectin (in words) [2] | platelet aggregation inhibition activity (in words) [3] |
| --- | --- | --- | --- |
| B1 | potent inhibitor | very potent in inhibiting cell attachment to vitronectin | – |
| B2 | – | Neither barbourin nor Peptide 1 (truncated barbourin) had a significant effect | potent inhibitors of platelet aggregation |
